Laboratory results: paper PMC3256231

Columns and labels:
[1] = target: M protein M3.22 (Streptococcus pyogenes); assay: radioligand binding; 250 µl of streptococci (10^8 bacteria per ml in PBS with 0.05% Tween 20), before and after hyaluronidase treatment, incubated 45 min with 30 ng (100,000 cpm) of 125I-labelled collagen IV; washed, radioactivity of the pellet counted; cut-off 20% bound ligand
[2] = target: M protein stG120.1 (Streptococcus dysgalactiae subsp. equisimilis); assay: as above
[3] = target: human collagen IV (immobilized, SPR) (human) (UniProt P02462); assay: SPR; human collagen IV immobilised (400 RU); recombinant M proteins injected for 2 min at 60 µl/min; apparent constants, Langmuir model for 1:1 interactions (BiaEvaluation 3.0)

“125I-labelled collagen IV (from human placenta, Sigma-Aldrich) (from UniProt P02462 173-1669; P08572 184-1712) (complex)” was tested, and the percent of the added collagen IV bound (% of the added collagen IV) [1] was over 20 and the percent bound ligand (% bound ligand) [2] was 56.
“recombinant M protein M31.5 (natural protein)” gave a Kd [3] of 0.6 nM.
“recombinant M protein M55 (from UniProt Q54840 1-550) (natural protein)” showed a Kd [3] of 5 nM.
“recombinant M protein stG2078 (natural protein)” showed an SPR response [3] of under 4 RU.
